According to article PMC7335050, “Characterization of an alternative BAK-binding site for BH3 peptides” (Nature Communications, 2020):

Molecular target: T1, BAKΔTM (human, UniProt Q16611 1-186)
T1 construct: BAK without the transmembrane segment, human, residues 1-186 of GenBank BC004431, in pET29b(+); Named His6-BAKΔTM in the liposome and cytochrome c assays; no tag removal is described; also called His6-BAKΔTM; WT BAKΔTM; source: E. coli BL21, purified (Ni2+-NTA-agarose, Superdex S200)
T1 sequence (looked up): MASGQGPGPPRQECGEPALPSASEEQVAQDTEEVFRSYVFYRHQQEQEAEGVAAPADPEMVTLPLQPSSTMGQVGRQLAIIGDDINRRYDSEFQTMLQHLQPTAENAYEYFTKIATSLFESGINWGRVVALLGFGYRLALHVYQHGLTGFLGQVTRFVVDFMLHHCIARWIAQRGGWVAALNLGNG
Test: SPR; BAKΔTM or mutants immobilised on a CM5 chip (Biacore T200; about 4000 RU in the mutant comparisons), BH3 peptides injected at 30 µl per min for 1 min, 25 °C, 10 mM HEPES pH 7.4, 150 mM NaCl, 0.05 mM EDTA, 0.005% polysorbate 20; steady-state analysis, approximate constants
Conditions: both partners purified

B1: BMF BH3 peptide (peptide)
chain: HQAEVQIARKLQCIADQFHRLHVQQH
Question: B1 was tested. Which Kd did it give?
Answer: The Kd was < 1000 nM.
